B1: murine wild-type IL-1 receptor antagonist (IL-1Ra) (natural protein, mouse, UniProt P25085 27-178, looked up)
chain: RPSGKRPCKMQAFRIWDTNQKTFYLRNNQLIAGYLQGPNIKLEEKIDMVPIDLHSVFLGIHGGKLCLSCAKSGDDIKLQLEEVNITDLSKNKEEDKRFTFIRSEKGPTTSFESAACPGWFLCTTLEADRPVSLTNTPEEPLIVTKFYFQEDQ
notes: interleukin-1 receptor antagonist protein, mouse; also called interleukin-1 receptor antagonist
B2: murine wild-type platelet-derived growth factor-BB (PDGF-BB) (ligand, mouse, UniProt P31240 82-190, looked up)
chain: SLGSLAAAEPAVIAECKTRTEVFQISRNLIDRTNANFLVWPPCVEVQRCSGCCNNRNVQCRASQVQMRPVQVRKIEIVRKKPIFKKATVTLEDHLACKCETIVTPRPVT
notes: platelet-derived growth factor subunit B, mouse; PDGF-BB occurs as a dimer; source: bought: Peprotech
B3: human fibrinogen (complex)
chain 1: ADSGEGDFLAEGGGVRGPRVVERHQSACKDSDWPFCSDEDWNYKCPSGCRMKGLIDEVNQDFTNRINKLKNSLFEYQKNNKDSHSLTTNIMEILRGDFSSANNRDNTYNRVSEDLRSRIEVLKRKVIEKVQHIQLLQKNVRAQLVDMKRLEVDIDIKIRSCRGSCSRALAREVDLKDYEDQQKQLEQVIAKDLLPSRDRQHLPLIKMKPVPDLVPGNFKSQLQKVPPEWKALTDMPQMRMELERPGGNEITRGGSTSYGTGSETESPRNPSSAGSWNSGSSGPGSTGNRNPGSSGTGGTATWKPGSSGPGSTGSWNSGSSGTGSTGNQNPGSPRPGSTGTWNPGSSERGSAGHWTSESSVSGSTGQWHSESGSFRPDSPGSGNARPNNPDWGTFEEVSGNVSPGTRREYHTEKLVTSKGDKELRTGKEKVTSGSTTTTRRSCSKTVTKTVIGPDGHKEVTKEVVTSEDGSDCPEAMDLGTLSGIGTLDGFRHRHPDEAAFFDTASTGKTFPGFFSPMLGEFVSETESRGSESGIFTNTKESSSHHPGIAEFPSRGKSSSYSKQFTSSTSYNRGDSTFESKSYKMADEAGSEADHEGTHSTKRGHAKSRPV
chain 2: QGVNDNEEGFFSARGHRPLDKKREEAPSLRPAPPPISGGGYRARPAKAAATQKKVERKAPDAGGCLHADPDLGVLCPTGCQLQEALLQQERPIRNSVDELNNNVEAVSQTSSSSFQYMYLLKDLWQKRQKQVKDNENVVNEYSSELEKHQLYIDETVNSNIPTNLRVLRSILENLRSKIQKLESDVSAQMEYCRTPCTVSCNIPVVSGKECEEIIRKGGETSEMYLIQPDSSVKPYRVYCDMNTENGGWTVIQNRQDGSVDFGRKWDPYKQGFGNVATNTDGKNYCGLPGEYWLGNDKISQLTRMGPTELLIEMEDWKGDKVKAHYGGFTVQNEANKYQISVNKYRGTAGNALMDGASQLMGENRTMTIHNGMFFSTYDRDNDGWLTSDPRKQCSKEDGGGWWYNRCHAANPNGRYYWGGQYTWDMAKHGTDDGVVWMNWKGSWYSMRKMSMKIRPFFPQQ
chain 3: YVATRDNCCILDERFGSYCPTTCGIADFLSTYQTKVDKDLQSLEDILHQVENKTSEVKQLIKAIQLTYNPDESSKPNMIDAATLKSRKMLEEIMKYEASILTHDSSIRYLQEIYNSNNQKIVNLKEKVAQLEAQCQEPCKDTVQIHDITGKDCQDIANKGAKQSGLYFIKPLKANQQFLVYCEIDGSGNGWTVFQKRLDGSVDFKKNWIQYKEGFGHLSPTGTTEFWLGNEKIHLISTQSAIPYALRVELEDWNGRTSTADYAMFKVGPEADKYRLTYAYFAGGDAGDAFDGFDFGDDPSDKFFTSHNGMQFSTWDNDNDKFEGNCAEQDGSGWWMNKCHAGHLNGVYYQGGTYSKASTPNGYDNGIIWATWKTRWYSMKKTTMKIIPFNRLTIGEGQQHHLGGAKQAGDV
modifications: Plasma-derived intact fibrinogen (Enzyme Research Laboratories), fibrinopeptides A and B retained; disulfide-linked (AαBβγ)2 hexamer, N-glycosylated, Ca2+-bound. By convention, the major circulating …

Assays:
Experiment in all cases: ELISA; ECM protein coated on the plate (100 nM in PBS, 1 h, 37 °C), blocked with 1% BSA in PBS-T; IL-1Ra or PDGF-BB variants at 0 to 100 nM in PBS-T with 0.1% BSA, 1 h, room temperature; bound protein detected with biotinylated antibodies (DuoSet); specific binding fitted with a one site-specific binding model; means of 3 independent experiments
Settings in all cases: both partners purified
human vitronectin = target: T1, human vitronectin (human, UniProt P04004 20-478)
T1 construct: vitronectin, human; also called Vn; source: bought: Peprotech

human tenascin C = target: T2, human tenascin C (human, UniProt P24821 23-2201)
T2 construct: tenascin C, human; also called TnC; source: bought: R&D Systems

human plasma fibronectin = human plasma fibronectin (human)
human fibrinogen = target: B3
IL-1Ra/PlGF123-141 = target: T3, IL-1Ra/PlGF123-141
T3 construct: interleukin-1 receptor antagonist; source: E. coli BL21 (DE3), pET-22b, soluble fraction purified (chelating SFF(Ni) column)

PDGF-BB/PlGF123-141 = target: T4, PDGF-BB/PlGF123-141
T4 construct: platelet-derived growth factor subunit B; also called engineered PDGF-BB
T4 sequence (P02671 36-866): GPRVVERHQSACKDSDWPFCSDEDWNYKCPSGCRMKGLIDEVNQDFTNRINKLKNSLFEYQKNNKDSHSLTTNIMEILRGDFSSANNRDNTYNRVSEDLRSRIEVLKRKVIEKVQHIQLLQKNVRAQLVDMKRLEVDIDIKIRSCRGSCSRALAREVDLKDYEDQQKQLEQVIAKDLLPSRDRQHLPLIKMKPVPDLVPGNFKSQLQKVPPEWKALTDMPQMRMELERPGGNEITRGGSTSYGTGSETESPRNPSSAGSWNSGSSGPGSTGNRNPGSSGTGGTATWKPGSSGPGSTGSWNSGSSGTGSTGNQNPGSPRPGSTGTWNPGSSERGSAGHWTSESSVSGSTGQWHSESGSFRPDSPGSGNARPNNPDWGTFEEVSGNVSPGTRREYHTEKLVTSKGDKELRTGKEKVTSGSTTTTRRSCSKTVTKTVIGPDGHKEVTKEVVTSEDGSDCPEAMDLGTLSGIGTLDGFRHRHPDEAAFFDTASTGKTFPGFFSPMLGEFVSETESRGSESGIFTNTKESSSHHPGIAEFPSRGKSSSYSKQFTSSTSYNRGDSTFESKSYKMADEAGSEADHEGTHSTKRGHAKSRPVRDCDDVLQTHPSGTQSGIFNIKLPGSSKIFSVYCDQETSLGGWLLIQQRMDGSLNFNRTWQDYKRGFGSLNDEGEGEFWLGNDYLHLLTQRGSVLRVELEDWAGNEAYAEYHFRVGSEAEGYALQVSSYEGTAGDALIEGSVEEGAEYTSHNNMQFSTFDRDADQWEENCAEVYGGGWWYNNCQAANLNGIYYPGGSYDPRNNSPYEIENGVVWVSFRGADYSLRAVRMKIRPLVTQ

human plasma fibronectin (human), sequence (P02751 other isoform, or with tags, fused parts or gaps): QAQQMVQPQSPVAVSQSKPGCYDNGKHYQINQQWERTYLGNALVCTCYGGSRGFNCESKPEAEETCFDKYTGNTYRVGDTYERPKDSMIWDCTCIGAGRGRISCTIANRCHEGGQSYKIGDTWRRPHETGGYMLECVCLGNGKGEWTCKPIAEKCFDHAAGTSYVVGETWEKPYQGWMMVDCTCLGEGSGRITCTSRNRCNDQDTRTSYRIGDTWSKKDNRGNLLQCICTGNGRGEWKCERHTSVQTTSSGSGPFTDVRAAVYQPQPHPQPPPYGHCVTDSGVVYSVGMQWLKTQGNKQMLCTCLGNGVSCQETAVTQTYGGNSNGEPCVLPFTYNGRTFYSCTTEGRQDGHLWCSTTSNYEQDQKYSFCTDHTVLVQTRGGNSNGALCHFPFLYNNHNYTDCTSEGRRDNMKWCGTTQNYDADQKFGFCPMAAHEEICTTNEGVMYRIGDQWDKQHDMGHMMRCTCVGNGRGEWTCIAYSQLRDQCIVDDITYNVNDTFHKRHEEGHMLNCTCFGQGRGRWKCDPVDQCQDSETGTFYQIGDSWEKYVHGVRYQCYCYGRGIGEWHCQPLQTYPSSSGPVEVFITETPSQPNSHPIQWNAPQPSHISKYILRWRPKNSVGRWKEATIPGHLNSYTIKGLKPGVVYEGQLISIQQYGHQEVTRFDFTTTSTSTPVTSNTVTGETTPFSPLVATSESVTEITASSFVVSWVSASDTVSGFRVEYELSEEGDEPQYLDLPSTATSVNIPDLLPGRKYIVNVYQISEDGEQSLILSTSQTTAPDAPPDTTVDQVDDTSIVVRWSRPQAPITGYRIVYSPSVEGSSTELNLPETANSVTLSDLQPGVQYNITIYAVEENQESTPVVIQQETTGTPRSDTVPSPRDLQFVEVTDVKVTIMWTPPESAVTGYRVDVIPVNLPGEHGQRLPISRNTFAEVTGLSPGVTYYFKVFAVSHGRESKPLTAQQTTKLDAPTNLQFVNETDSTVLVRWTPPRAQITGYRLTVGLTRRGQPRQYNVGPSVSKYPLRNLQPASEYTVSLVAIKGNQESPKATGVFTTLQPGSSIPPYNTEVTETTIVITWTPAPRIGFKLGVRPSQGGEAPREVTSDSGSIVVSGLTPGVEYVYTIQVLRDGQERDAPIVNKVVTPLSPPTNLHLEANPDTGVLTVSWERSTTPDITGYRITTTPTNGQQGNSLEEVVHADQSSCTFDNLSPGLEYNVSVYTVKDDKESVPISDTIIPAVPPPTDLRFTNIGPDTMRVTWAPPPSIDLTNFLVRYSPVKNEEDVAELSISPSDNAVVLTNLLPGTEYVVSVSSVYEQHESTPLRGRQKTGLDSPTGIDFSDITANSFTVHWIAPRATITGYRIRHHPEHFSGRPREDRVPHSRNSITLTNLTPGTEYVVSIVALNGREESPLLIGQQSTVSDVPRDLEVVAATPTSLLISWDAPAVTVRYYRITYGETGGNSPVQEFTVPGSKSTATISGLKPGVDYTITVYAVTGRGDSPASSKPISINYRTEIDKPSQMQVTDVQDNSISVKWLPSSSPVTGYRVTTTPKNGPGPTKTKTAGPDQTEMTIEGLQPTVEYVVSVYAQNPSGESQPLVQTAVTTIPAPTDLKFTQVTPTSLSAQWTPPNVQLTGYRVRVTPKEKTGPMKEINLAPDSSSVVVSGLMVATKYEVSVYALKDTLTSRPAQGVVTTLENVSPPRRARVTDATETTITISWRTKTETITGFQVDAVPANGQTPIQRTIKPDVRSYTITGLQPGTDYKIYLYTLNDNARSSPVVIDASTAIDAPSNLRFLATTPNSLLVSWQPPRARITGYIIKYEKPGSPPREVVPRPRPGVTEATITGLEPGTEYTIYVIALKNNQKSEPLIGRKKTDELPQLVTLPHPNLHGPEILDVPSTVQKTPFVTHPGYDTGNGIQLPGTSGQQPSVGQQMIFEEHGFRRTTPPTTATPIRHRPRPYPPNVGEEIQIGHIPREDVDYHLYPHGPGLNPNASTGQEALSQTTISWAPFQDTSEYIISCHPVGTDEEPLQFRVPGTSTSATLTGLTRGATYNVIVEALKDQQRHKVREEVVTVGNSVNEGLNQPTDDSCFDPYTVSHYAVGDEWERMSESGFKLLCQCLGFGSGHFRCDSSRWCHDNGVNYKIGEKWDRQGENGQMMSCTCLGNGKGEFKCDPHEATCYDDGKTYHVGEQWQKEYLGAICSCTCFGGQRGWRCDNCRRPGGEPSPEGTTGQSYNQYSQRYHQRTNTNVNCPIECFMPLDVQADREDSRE
human fibrinogen, sequence (P02671 36-866): as the sequence (P02671 36-866) above
T1 sequence (P04004 20-478): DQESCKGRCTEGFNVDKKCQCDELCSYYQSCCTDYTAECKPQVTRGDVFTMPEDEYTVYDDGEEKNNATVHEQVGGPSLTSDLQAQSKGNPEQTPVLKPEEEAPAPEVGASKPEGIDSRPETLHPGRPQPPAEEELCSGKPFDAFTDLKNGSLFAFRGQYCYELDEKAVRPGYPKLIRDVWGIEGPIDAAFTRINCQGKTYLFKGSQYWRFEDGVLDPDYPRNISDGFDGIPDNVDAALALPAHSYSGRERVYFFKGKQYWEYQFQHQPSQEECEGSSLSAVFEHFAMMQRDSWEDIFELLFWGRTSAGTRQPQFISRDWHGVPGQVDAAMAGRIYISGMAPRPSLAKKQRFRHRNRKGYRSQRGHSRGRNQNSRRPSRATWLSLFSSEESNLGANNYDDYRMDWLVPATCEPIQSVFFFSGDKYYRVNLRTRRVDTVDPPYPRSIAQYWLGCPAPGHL
T3 sequence (P18510 whole entry): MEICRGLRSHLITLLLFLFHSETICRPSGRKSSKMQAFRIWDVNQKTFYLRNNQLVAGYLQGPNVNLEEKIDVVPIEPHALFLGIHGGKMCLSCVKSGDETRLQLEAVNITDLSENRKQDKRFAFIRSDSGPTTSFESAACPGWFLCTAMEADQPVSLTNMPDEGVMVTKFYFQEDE

Binder | Kd (human vitronectin) [nM] | Kd (human tenascin C) [nM] | Kd (human plasma fibronectin) [nM] | Kd (human fibrinogen) [nM] | Kd (IL-1Ra/PlGF123-141) [nM] | Kd (PDGF-BB/PlGF123-141) [nM]
B1 | 73.2 | 113 | 129 | 663 | – | –
B2 | 32.1 | 94.3 | 67.5 | 206 | – | –
B3 | – | – | – | – | 43.5 | 16.7

From article PMC7998035, “Restoration of the healing microenvironment in diabetic wounds with matrix-binding IL-1 receptor antagonist” (Communications Biology, 2021)
